Biological target: TIM (the TIM-EGFP-LacI bait of the FRAP experiment, not named)
Test: FRAP

B1: TagRFP-PPP1R10-TND (domain or fragment)
chain: KLLNNWLTYSKTTNNIPLLQQILLTLQHLPLTVDHLKQNNTAKLVKQLSKSSEDEELRKLASVLVSDWMAVIRSQ
B1 gave an FRAP half-life of 14.9 s.
